According to patent publication US20140178935A1 (AVEO PHARMACEUTICALS, published 2014):
Changes are numbered by the printed parent chain.

Assays:
[1] = target: T1, recombinant human HGF (R&D Systems, Catalog No. 294-HGN-025) (human, UniProt P14210 32-728); experiment: cell-based or functional assay
[2] = target: T2, recombinant mouse HGF (R&D Systems) (mouse, UniProt Q08048 33-728); experiment: SPR, antibody immobilized, HGF protein injected, 25 C
T2 construct: Bought protein, construct not described; also called rmHGF (R&D Systems); murine HGF
Experimental: (§1) Analyses were performed at 25° C. using PBS (GIBCO, Catalog No. 14040-133) containing 0.05% surfactant P20 (BIAcore, Catalog No. R-1000-54), 2 mg/mL BSA (EMD, Catalog No. 2930) and 10 mg/mL CM-Dextran Sodium salt (Fluka, Catalog No. 86524) as running buffer. […] The resulting binding was determined as resonance units (RU) over baseline 30 seconds after the end of injection. […] Non-specific binding was monitored by comparing binding to a control surface.

[3] = target: T3, recombinant mhm chimeric HGF protein containing the region I499-R556 of hHGF disposed between murine sequences (mouse-human-mouse chimera, UniProt Q08048 56-728); experiment: as above
T3 construct: also called mhm chimera (I499-R556)
T3 chain: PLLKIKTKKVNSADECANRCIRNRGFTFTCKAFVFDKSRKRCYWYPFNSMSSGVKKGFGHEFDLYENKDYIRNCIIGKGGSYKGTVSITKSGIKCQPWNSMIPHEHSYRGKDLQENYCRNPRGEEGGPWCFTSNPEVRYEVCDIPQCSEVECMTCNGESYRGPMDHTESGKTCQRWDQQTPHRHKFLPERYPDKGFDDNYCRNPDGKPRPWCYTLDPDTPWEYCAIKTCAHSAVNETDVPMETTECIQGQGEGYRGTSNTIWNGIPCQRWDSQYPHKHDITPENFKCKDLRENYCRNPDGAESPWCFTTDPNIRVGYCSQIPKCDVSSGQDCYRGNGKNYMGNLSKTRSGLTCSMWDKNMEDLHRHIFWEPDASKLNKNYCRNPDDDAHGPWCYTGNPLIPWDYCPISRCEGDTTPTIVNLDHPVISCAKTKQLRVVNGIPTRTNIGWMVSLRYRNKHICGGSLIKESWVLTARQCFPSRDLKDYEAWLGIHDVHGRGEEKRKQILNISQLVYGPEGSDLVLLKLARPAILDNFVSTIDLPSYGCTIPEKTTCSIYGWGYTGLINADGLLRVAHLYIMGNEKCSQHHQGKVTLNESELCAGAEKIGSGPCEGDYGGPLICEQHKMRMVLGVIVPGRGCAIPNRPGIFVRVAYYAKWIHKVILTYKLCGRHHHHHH
Experimental: as §1

[4] = target: T4, recombinant mhm chimeric HGF protein containing human W507-L585 HGF sequence disposed within mouse HGF … (mouse-human-mouse chimera, UniProt Q08048 56-728); experiment: as above
T4 construct: CHO supernatant; also called mhm chimera (W507-L585); MHM chimera (507-585)
T4 chain: T3 chain with R443Q, N445T, I446V, E499D, R502C, I505V, I508V, L523M
Experimental: as §1

[5] = target: T1, recombinant human HGF (R&D Systems, …); experiment: SPR, captured antibody, HGF injected, 37 C
Experimental: Mouse anti-human immunoglobulins (Jackson Labs, Catalog No. 209-005) or rabbit anti-mouse immunoglobulins (BIAcore, Catalog No. BR-1005-14) were immobilized on carboxymethylated dextran CM4 sensor chips (BIAcore, Catalog No. BR-1006-68) by amine coupling (BIAcore, Catalog No. BR-1000-50) using a standard coupling protocol according to manufacturer's instructions. […] The analyses were performed at 25° C. and 37° C. using PBS (GIBCO, Catalog No. 14040-133) containing 0.05% surfactant P20 (BIAcore, Catalog No. BR-1000-54), and 2 mg/mL BSA (EMD, Catalog No. 2930) as running buffer.
The antibodies were captured in an individual flow cell at a flow rate of […]. Injection time was variable for each antibody to yield approximately 20 RU of antibody captured for each cycle. […] The dissociation phase was monitored for 15 or 90 minutes, depending on concentration. The surface of mouse anti-human immunoglobulins sensor chips was then regenerated with 10 mM Glycine-HCl, pH 2.2 (BIAcore, Catalog No. BR-1003-54) injected for 3 minutes at a flow rate of 60 μL/min before another cycle was initiated. The surface of rabbit anti-mouse immunoglobulins sensor chips was regenerated with 10 mM Glycine-HCl, pH 1.7 (BIAcore, Catalog No. BR-1003-54) injected for 3 minutes at a flow rate of 60 μL/min before another cycle was initiated.
Kinetic parameters were determined using the kinetic function of the BIAevaluation software with reference subtraction.

T1 sequence (P14210 32-728 limits assumed): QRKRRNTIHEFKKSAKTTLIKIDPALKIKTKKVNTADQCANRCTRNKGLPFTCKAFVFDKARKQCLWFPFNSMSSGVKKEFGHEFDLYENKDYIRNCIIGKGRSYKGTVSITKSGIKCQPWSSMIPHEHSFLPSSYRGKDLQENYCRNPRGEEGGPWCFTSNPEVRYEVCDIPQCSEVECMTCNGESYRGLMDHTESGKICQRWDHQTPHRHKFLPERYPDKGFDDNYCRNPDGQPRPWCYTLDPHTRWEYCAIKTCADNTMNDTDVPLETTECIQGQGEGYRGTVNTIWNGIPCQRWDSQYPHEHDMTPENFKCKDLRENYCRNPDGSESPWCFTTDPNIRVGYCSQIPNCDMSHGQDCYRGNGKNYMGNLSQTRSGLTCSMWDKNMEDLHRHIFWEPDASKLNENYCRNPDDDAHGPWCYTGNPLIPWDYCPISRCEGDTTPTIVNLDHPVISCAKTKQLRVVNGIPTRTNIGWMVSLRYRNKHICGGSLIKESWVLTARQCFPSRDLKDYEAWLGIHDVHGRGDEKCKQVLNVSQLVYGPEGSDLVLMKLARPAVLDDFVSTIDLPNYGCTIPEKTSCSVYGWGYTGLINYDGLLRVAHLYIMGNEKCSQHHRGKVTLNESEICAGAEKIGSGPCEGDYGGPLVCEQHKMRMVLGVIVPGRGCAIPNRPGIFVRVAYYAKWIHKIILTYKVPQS
T2 sequence (Q08048 33-728 limits assumed): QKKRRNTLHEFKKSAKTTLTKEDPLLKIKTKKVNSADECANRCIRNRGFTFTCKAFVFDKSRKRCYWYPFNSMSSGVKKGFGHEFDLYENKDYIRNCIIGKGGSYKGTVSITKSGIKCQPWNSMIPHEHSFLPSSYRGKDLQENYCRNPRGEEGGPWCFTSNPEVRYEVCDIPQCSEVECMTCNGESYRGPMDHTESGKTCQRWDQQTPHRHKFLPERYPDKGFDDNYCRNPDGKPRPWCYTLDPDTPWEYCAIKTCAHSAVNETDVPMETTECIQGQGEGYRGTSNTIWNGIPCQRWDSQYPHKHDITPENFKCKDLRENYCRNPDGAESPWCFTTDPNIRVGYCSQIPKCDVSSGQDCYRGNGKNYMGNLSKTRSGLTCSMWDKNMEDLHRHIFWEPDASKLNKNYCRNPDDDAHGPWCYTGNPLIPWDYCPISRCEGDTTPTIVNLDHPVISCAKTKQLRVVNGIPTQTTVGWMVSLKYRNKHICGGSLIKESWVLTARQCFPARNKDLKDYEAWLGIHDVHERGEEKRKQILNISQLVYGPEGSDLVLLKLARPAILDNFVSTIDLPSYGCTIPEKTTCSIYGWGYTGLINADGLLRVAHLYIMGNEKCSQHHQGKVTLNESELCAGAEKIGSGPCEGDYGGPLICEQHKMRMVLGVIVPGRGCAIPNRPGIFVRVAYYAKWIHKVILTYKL

B1: anti-hHGF monoclonal antibody 2B8 (antibody, mouse IgG1, kappa)
heavy: QVQLQQPGAELVKPGTSVKLSCKASGYTFTTYWMHWVNQRPGQGLEWIGEINPTNGHTNYNEKFKSKATLTVDKSSSTAYMQLSSLTSEDSAVYYCARNYVGSIFDYWGQGTTLTVSSAKTTPPSVYPLAPGSAAQTNSMVTLGCLVKGYFPEPVTVTWNSGSLSSGVHTFPAVLQSDLYTLSSSVTVPSSTWPSETVTCNVAHPASSTKVDKKIVPRDCGCKPCICTVPEVSSVFIFPPKPKDVLTITLTPKVTCVVVDISKDDPEVQFSWFVDDVEVHTAQTQPREEQFNSTFRSVSELPIMHQDWLNGKEFKCRVNSAAFPAPIEKTISKTKGRPKAPQVYTIPPPKEQMAKDKVSLTCMITDFFPEDITVEWQWNGQPAENYKNTQPIMDTDGSYFVYSKLNVQKSNWEAGNTFTCSVLHEGLHNHHTEKSLSHSPGK
light: NIVMTQSPKSMSMSVGERVTLSCKASENVVSYVSWYQQKPAQSPKLLIYGASNRNTGVPDRFTGSGSATDFTLTISSVRAEDLADYHCGQSYNYPYTFGGGTRLEIKRADAAPTVSIFPPSSEQLTSGGASVVCFLNNFYPKDINVKWKIDGSERQNGVLNSWTDQDSKDSTYSMSSTLTLTKDEYERHNSYTCEATHKTSTSPIVKSFNRNEC
notes: Murine IgG1 kappa from hybridoma; also called murine 2B8; mouse 2B8
- IC50, neutralization of HGF stimulated BrdU incorporation in 4 MBr-5 cells [1]: 0.86 nM
- binding result [2]: no binding
- binding result [3]: binds
- binding result [4]: binds
- Kd [5]: 0.0045 nM
- koff [5]: 1.3e-05 s⁻¹
- kon [5]: 2.8e+06 M⁻¹ s⁻¹

B2: HE2B8-4 (LRMR2B8HC + IgG1 constant region G1m(3) allotype allele 1, plus LRMR2B8LC + Kappa constant region Km(3) allotype allele 1) (antibody, V domains shown)
VH: QVQLVQPGAEVKKPGTSVKLSCKASGYTFTTYWMHWVRQAPGQGLEWIGEINPTNGHTNYNQKFQGRATLTVDKSTSTAYMELSSLRSEDTAVYYCARNYVGSIFDYWGQGTLLTVSS
VL: DIVMTQSPDSLAMSLGERVTLNCKASENVVSYVSWYQQKPGQSPKLLIYGASNRESGVPDRFSGSGSATDFTLTISSVQAEDVADYHCGQSYNYPYTFGQGTKLEIKR
notes: Human Engineered 2B8 variant, human IgG1 kappa, made in HEK293E cells
- IC50, neutralization of HGF stimulated BrdU incorporation in 4 MBr-5 cells [1]: 0.58 nM
- binding result [2]: no binding
- binding result [3]: binds
- binding result [4]: binds
- Kd [5]: 0.0033 nM
- koff [5]: 1e-05 s⁻¹
- kon [5]: 3.1e+06 M⁻¹ s⁻¹
